Residue numbers refer to the chain shown, from its start. Names may count otherwise.
B1: P362A (protein)
chain: MQLRNPELHLGCALALRFLALVSWDIPGARALDNGLARTPTMGWLHWERFMCNLDCQEEPDSCISEKLFMEMAELMVSEGWKDAGYEYLCIDDCWMAPQRDSEGRLQADPQRFPHGIRQLANYVHSKGLKLGIYADVGNKTCAGFPGSFGYYDIDAQTFADWGVDLLKFDGCYCDSLENLADGYKHMSLALNRTGRSIVYSCEWPLYMWPFQKPNYTEIRQYCNHWRNFADIDDSWKSIKSILDWTSFNQERIVDVAGPGGWNDPDMLVIGNFGLSWNQQVTQMALWAIMAAPLFMSNDLRHISPQAKALLQDKDVIAINQDPLGKQGYQLRQGDNFEVWERPLSGLAWAVAMINRQEIGGARSYTIAVASLGKGVACNPACFITQLLPVKRKLGFYEWTSRLRSHINPTGTVLLQLENTMQMSLKDLL
B2: Y365F (protein)
chain: B1 chain with A362P, Y365F
B3: T366P (protein)
chain: B1 chain with A362P, T366P
B4: Y365D (protein)
chain: B1 chain with A362P, Y365D
B5: S364C (protein)
chain: B1 chain with A362P, S364C
B6: R363L (protein)
chain: B1 chain with A362P, R363L
B7: R363S (protein)
chain: B1 chain with A362P, R363S
B8: P362R (protein)
chain: B1 chain with A362R
B9: T366N (protein)
chain: B1 chain with A362P, T366N
B10: P362H (protein)
chain: B1 chain with A362H
B11: T366I (protein)
chain: B1 chain with A362P, T366I
B12: Y365N (protein)
chain: B1 chain with A362P, Y365N
B13: R363G (protein)
chain: B1 chain with A362P, R363G
B14: Y365S (protein)
chain: B1 chain with A362P, Y365S
B15: P362S (protein)
chain: B1 chain with A362S
B16: S364P (protein)
chain: B1 chain with A362P, S364P

Each molecule was assayed on mutant form of α-Gal A expressed in HEK-293 cells (assay: HEK assay (GLP HEK / Migalastat Amenability Assay): α-Gal A activity in lysates of transiently transfected HEK-293 cells incubated with or without 10 μM migalastat). Details: 10 μM migalastat versus baseline.
Format: cell-based, human
Method in brief: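 Activity reported as 4-MU released (nmol/mg/hr), mean±SEM, from lysates of transiently transfected HEK-293 cells expressing mutant α-Gal A, cultured with or without 10 μM migalastat.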

Point of comparison: B12, “Absolute increase (% WT)” value 22.5 % WT. Against it:
- B1 — higher, 40.1 % WT
- B2 — lower, 21.1 % WT
- B3 — lower, 13.4 % WT
- B4 — lower, 19.7 % WT
- B5 — higher, 40.0 % WT
- B6 — higher, 62.2 % WT
- B7 — higher, 86.6 % WT
- B8 — higher, 23.9 % WT
- B9 — lower, 20.4 % WT
- B10 — higher, 33.4 % WT
- B11 — lower, 20.0 % WT
- B13 — higher, 72.6 % WT
- B14 — lower, 18.4 % WT
- B15 — higher, 53.8 % WT
- B16 — higher, 63.1 % WT

Point of comparison: B6, Relative increase 3.5. Against it:
- B1 — lower, 1.4
- B2 — lower, 1.3
- B3 — lower, 1.3
- B4 — lower, 1.6
- B5 — lower, 1.3
- B7 — lower, 2.7
- B8 — lower, 1.8
- B9 — lower, 1.3
- B10 — higher, 3.9
- B11 — lower, 1.3
- B12 — lower, 1.4
- B13 — lower, 2.7
- B14 — lower, 1.4
- B15 — lower, 1.8
- B16 — lower, 1.4

Same assay, conditions: absence of migalastat; percentage of baseline wild-type α-Gal A activity; mean ± SEM

Point of comparison: B11, “Baseline α-Gal A activity (% WT)” value 57.8 ± 2.5 % WT. Against it:
- B1 — higher, 100.8 ± 9.5 % WT
- B2 — higher, 67.7 ± 5.1 % WT
- B3 — lower, 46.2 ± 4 % WT
- B4 — lower, 31.3 ± 2.7 % WT
- B5 — higher, 127 ± 10.6 % WT
- B6 — lower, 23.2 ± 1.9 % WT
- B7 — within error, 50.1 ± 5.9 % WT
- B8 — lower, 25 ± 3.1 % WT
- B9 — higher, 78.1 ± 5.3 % WT
- B10 — lower, 11.2 ± 1 % WT
- B12 — within error, 59.7 ± 1.7 % WT
- B13 — lower, 41.8 ± 5.1 % WT
- B14 — lower, 49.4 ± 4.1 % WT
- B15 — higher, 71.2 ± 7.7 % WT
- B16 — higher, 143.2 ± 13.7 % WT

Same assay, conditions: lysates of HEK-293 cells transiently transfected with the mutant form, incubated 5 days in absence of migalastat; mean ± SEM

Point of comparison: B6, “Baseline α-Gal A activity” value 8123 ± 869 nmol/mg/h. Against it:
- B1 — higher, 35322 ± 3087 nmol/mg/h
- B2 — higher, 19631 ± 2010 nmol/mg/h
- B3 — higher, 13407 ± 1462 nmol/mg/h
- B4 — within error, 9119 ± 1027 nmol/mg/h
- B5 — higher, 41263 ± 2389 nmol/mg/h
- B7 — higher, 16400 ± 1695 nmol/mg/h
- B8 — within error, 8745 ± 1176 nmol/mg/h
- B9 — higher, 24650 ± 1756 nmol/mg/h
- B10 — lower, 3713 ± 377 nmol/mg/h
- B11 — higher, 18539 ± 1165 nmol/mg/h
- B12 — higher, 19111 ± 869 nmol/mg/h
- B13 — higher, 13990 ± 1613 nmol/mg/h
- B14 — higher, 14346 ± 1563 nmol/mg/h
- B15 — higher, 25234 ± 2794 nmol/mg/h
- B16 — higher, 48193 ± 4573 nmol/mg/h

Same assay, conditions: lysates of HEK-293 cells transiently transfected with the mutant form, incubated 5 days with 10 μM migalastat; mean ± SEM

Point of comparison: B10, “10 μM migalastat α-Gal A activity” value 14620 ± 531 nmol/mg/h. Against it:
- B1 — higher, 49809 ± 2721 nmol/mg/h
- B2 — higher, 25395 ± 2160 nmol/mg/h
- B3 — higher, 16910 ± 1608 nmol/mg/h
- B4 — within error, 14664 ± 1311 nmol/mg/h
- B5 — higher, 53912 ± 3067 nmol/mg/h
- B6 — higher, 27997 ± 2485 nmol/mg/h
- B7 — higher, 44621 ± 3266 nmol/mg/h
- B8 — within error, 15971 ± 1019 nmol/mg/h
- B9 — higher, 30947 ± 1867 nmol/mg/h
- B11 — higher, 24814 ± 1897 nmol/mg/h
- B12 — higher, 26514 ± 1978 nmol/mg/h
- B13 — higher, 37837 ± 2998 nmol/mg/h
- B14 — higher, 19484 ± 1899 nmol/mg/h
- B15 — higher, 45209 ± 4138 nmol/mg/h
- B16 — higher, 66731 ± 4698 nmol/mg/h

Same assay, conditions: with 10 μM migalastat, 5 days; percentage of baseline wild-type α-Gal A activity; mean ± SEM

Point of comparison: B1, “10 μM migalastat α-Gal A activity (% WT)” value 140.9 ± 8.5 % WT. Against it:
- B2 — lower, 88.8 ± 5.3 % WT
- B3 — lower, 59.5 ± 5.1 % WT
- B4 — lower, 51 ± 3.5 % WT
- B5 — higher, 167 ± 14.8 % WT
- B6 — lower, 85.4 ± 9.5 % WT
- B7 — within error, 136.7 ± 12.4 % WT
- B8 — lower, 48.9 ± 4.1 % WT
- B9 — lower, 98.5 ± 5.4 % WT
- B10 — lower, 44.6 ± 1.9 % WT
- B11 — lower, 77.8 ± 5.3 % WT
- B12 — lower, 82.2 ± 4.5 % WT
- B13 — lower, 114.4 ± 10.7 % WT
- B14 — lower, 67.8 ± 4.9 % WT
- B15 — within error, 125 ± 9 % WT
- B16 — higher, 206.4 ± 20 % WT

— US11833164B2, “Methods of treating Fabry disease in patients having a mutation in the GLA gene” (Amicus Therapeutics, Inc., priority 2019, dated 2023)
